Reference: paper PMC4397081

Molecular target: Type 2 (MM2) sCJD proteinase K-resistant PrP^Sc aggregates (human)
Assay: sedimentation velocity in sucrose gradient (ultracentrifugation)

In the case of “Type 2 (MM2) sCJD proteinase K-resistant PrP^Sc aggregates (complex)”, the stoichiometry N is reported as greater than 600 monomers.
